The values below are quoted from earlier work in publication PMC10359924.

Read-outs that look alike come from different tables or passages of the source.

Data set [1] has as its target IL-13Rα1 (Homo sapiens) (UniProt P78552).
In data set [2] the target is IL-4Rα (Homo sapiens) (UniProt P24394).
Another data set concerns the target γc (Homo sapiens) (UniProt P31785).
Data set [3] deals with IL-13Rα1 (Homo sapiens) (UniProt P78552). The source holds these as a separate data set.
Data set [4] deals with IL-4Rα (Homo sapiens) (UniProt P24394). The source holds these as a separate data set.

IL-13Rα1 (Homo sapiens), sequence (P78552 22-343): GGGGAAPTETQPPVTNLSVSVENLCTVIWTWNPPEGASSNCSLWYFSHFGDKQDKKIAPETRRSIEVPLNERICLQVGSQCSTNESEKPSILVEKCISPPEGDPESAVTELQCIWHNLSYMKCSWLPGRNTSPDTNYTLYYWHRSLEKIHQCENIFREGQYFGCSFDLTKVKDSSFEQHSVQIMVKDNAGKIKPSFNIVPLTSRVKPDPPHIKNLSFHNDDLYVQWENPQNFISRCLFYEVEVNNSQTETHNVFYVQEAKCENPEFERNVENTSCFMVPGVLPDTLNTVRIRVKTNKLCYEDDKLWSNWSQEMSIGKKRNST
IL-4Rα (Homo sapiens), sequence (P24394 26-232): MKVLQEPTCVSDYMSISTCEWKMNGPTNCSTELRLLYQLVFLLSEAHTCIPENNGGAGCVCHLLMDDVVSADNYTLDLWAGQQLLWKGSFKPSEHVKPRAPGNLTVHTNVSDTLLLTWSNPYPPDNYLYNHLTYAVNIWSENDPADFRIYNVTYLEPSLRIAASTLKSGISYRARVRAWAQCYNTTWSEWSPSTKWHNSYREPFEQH
IL-4/IL-4Rα complex, sequence (P05112 25-153): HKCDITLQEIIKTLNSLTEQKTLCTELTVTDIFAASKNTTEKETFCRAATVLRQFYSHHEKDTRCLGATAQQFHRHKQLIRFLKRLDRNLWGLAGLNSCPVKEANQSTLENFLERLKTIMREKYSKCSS
IL-4/IL-4Rα complex, sequence (P24394 26-232, further chain): as the sequence (P24394 26-232) above
IL-13/IL-13Rα1 complex, sequence (P35225 25-146): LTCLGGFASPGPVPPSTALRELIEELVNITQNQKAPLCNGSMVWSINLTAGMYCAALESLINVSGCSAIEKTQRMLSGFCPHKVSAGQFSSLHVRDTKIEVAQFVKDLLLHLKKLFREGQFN
IL-13/IL-13Rα1 complex, sequence (P78552 22-343, further chain): as the sequence (P78552 22-343) above
IL-13, sequence (P35225 25-146): as the sequence (P35225 25-146) above
IL-4, sequence (P05112 25-153): as the sequence (P05112 25-153) above
γc (Homo sapiens), sequence (P31785 23-262): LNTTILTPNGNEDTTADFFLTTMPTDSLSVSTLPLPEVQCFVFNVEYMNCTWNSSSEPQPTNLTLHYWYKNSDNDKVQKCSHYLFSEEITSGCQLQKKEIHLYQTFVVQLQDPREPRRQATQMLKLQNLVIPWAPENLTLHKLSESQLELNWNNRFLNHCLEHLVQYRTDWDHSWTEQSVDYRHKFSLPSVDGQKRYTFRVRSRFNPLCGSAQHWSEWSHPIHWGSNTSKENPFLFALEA

The term Kd denotes a measure of binding affinity in units of concentration. For IL-13 (from UniProt P35225), the Kd in the data set with IL-13Rα1 (Homo sapiens) [1] is 30 nM.
Take “IL-13/IL-13Rα1 complex (from UniProt P35225)”: in the data set with IL-4Rα (Homo sapiens) [2], the Kd is 20 nM.
As for “IL-4/IL-4Rα complex (from UniProt P05112)”, the dissociation constant (Kd) was 559 nM with γc (Homo sapiens) and 487 nM with IL-13Rα1 (Homo sapiens) [3].
In the case of IL-4 (from UniProt P05112), the Kd with IL-4Rα (Homo sapiens) [4] was 1 nM.
